Molecular target: WT‐EsxB (Bacillus anthracis)
Experiment: SEC

## WT‐EsxB (natural protein)
  stoichiometry N: 4

Source: article PMC4570534
